Measurements from paper PMC9482650, “Quantitative fragmentomics allow affinity mapping of interactomes” (Nature Communications, 2022).

T1: SYNJ2BP, P57105
T1 sequence (P57105 8-110, limits assumed, looked up): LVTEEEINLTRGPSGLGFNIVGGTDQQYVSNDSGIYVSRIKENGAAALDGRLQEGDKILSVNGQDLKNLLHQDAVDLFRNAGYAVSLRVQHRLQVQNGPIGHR

T2: GRIP1_2, Q9Y3R0
T2 sequence (Q9Y3R0 145-248, limits assumed, looked up): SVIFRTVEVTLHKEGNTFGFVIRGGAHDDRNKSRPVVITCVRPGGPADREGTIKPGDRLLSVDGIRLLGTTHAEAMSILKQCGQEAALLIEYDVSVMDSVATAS

T3: GRIP1_5, Q9Y3R0
T3 sequence (Q9Y3R0 568-668, limits assumed, looked up): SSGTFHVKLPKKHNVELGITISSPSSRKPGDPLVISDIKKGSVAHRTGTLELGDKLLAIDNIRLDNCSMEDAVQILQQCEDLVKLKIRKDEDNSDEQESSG

T4: APBA1_1, Q02410
T4 sequence (Q02410 651-752, limits assumed, looked up): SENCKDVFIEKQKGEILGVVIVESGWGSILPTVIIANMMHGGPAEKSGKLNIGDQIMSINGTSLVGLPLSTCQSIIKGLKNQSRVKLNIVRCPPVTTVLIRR

T5: TJP3_3, O95049
T5 sequence (O95049 375-456, limits assumed, looked up): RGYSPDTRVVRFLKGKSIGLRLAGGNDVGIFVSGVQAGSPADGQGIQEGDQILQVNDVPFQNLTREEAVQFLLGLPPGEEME

T6: APBA2_1, Q99767
T6 sequence (Q99767 563-664, limits assumed, looked up): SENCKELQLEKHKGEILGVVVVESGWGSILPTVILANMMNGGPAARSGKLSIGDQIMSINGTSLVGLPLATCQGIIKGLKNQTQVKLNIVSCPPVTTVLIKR

T7: MPP7, Q5T2T1
T7 sequence (Q5T2T1 134-230, limits assumed, looked up): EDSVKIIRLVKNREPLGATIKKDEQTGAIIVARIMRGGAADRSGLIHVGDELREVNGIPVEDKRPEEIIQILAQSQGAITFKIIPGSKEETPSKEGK

T8: GRIP1_7, Q9Y3R0
T8 sequence (Q9Y3R0 999-1096, limits assumed, looked up): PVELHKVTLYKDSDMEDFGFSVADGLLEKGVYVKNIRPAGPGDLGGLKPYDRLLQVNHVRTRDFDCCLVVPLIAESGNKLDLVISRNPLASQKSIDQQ

T9: GRIP1_3, Q9Y3R0
T9 sequence (Q9Y3R0 247-346, limits assumed, looked up): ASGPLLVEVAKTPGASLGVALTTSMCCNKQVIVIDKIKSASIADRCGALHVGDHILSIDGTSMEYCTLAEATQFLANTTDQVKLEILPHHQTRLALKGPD


Columns and labels:
Assay in all cases: holdup assay
Set-up in all cases: key: below the threshold = too weak to quantify, mostly under pKd 3.1 to 4
Conditions in all cases: plain residues with an end cap or a label only (N-terminal biotin on a linker: ado-ado)
GRID2IP_1, A4D2P6 = molecular target: GRID2IP_1, A4D2P6
GRIP2_5, Q9C0E4 = molecular target: GRIP2_5, Q9C0E4
SYNJ2BP, P57105 = molecular target: T1, SYNJ2BP, P57105
SNX27, Q96L92 = molecular target: SNX27, Q96L92
GRIP1_2, Q9Y3R0 = molecular target: T2, GRIP1_2, Q9Y3R0
SCRIB_2, Q14160 = molecular target: SCRIB_2, Q14160
GRIP1_5, Q9Y3R0 = molecular target: T3, GRIP1_5, Q9Y3R0
CASK, O14936 = molecular target: CASK, O14936
GRIP2_7, Q9C0E4 = molecular target: GRIP2_7, Q9C0E4
APBA1_1, Q02410 = molecular target: T4, APBA1_1, Q02410
TJP2_1, Q9UDY2 = molecular target: TJP2_1, Q9UDY2
TJP3_3, O95049 = molecular target: T5, TJP3_3, O95049
APBA2_1, Q99767 = molecular target: T6, APBA2_1, Q99767
GRIP2_6, Q9C0E4 = molecular target: GRIP2_6, Q9C0E4
MAGI2_4, Q86UL8 = molecular target: MAGI2_4, Q86UL8
GRIP2_4, Q9C0E4 = molecular target: GRIP2_4, Q9C0E4
MAGI2_2, Q86UL8 = molecular target: MAGI2_2, Q86UL8
LAP2, Q96RT1 = molecular target: LAP2, Q96RT1
FRMPD4, Q14CM0 = molecular target: FRMPD4, Q14CM0
PDZRN4_1, Q6ZMN7 = molecular target: PDZRN4_1, Q6ZMN7
HTRA2, O43464 = molecular target: HTRA2, O43464
DLG5_1, Q8TDM6 = molecular target: DLG5_1, Q8TDM6
Inadl_2, Q8NI35 = molecular target: Inadl_2, Q8NI35
SCRIB_1, Q14160 = molecular target: SCRIB_1, Q14160
MPP7, Q5T2T1 = molecular target: T7, MPP7, Q5T2T1
GRIP1_7, Q9Y3R0 = molecular target: T8, GRIP1_7, Q9Y3R0
GRIP1_3, Q9Y3R0 = molecular target: T9, GRIP1_3, Q9Y3R0
GORASP2, Q9H8Y8 = molecular target: GORASP2, Q9H8Y8

Sequence of GRIP2_7, Q9C0E4 (Q9C0E4 934-1023): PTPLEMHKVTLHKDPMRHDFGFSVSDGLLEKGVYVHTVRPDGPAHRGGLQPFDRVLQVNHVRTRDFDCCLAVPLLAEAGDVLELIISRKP
Sequence of DLG5_1, Q8TDM6 (Q8TDM6 617-713): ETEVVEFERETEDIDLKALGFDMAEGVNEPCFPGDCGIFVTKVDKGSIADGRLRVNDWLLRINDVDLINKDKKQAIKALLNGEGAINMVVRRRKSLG
Sequence of SCRIB_2, Q14160 (Q14160 857-960): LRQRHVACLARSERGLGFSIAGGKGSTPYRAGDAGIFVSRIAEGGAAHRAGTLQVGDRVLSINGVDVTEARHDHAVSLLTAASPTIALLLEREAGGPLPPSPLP
Sequence of TJP2_1, Q9UDY2 (Q9UDY2 24-128): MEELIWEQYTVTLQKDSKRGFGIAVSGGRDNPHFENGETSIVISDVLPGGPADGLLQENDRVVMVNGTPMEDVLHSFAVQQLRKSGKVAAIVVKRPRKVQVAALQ
Sequence of Inadl_2, Q8NI35 (Q8NI35 238-335): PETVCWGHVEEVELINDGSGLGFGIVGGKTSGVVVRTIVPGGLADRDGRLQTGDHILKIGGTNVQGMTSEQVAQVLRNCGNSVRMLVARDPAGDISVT
Sequence of LAP2, Q96RT1 (Q96RT1 other isoform, or with tags, fused parts or gaps): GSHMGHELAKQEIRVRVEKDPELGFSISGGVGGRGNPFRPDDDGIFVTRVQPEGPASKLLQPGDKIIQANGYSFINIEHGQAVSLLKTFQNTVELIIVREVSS
Sequence of GRID2IP_1, A4D2P6 (A4D2P6 1-87): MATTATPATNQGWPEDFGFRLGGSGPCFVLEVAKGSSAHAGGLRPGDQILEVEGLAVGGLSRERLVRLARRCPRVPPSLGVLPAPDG
Sequence of SCRIB_1, Q14160 (Q14160 718-814): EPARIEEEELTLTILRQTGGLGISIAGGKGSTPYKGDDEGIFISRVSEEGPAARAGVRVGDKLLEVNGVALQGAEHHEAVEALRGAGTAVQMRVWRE
Sequence of GRIP2_6, Q9C0E4 (Q9C0E4 648-740): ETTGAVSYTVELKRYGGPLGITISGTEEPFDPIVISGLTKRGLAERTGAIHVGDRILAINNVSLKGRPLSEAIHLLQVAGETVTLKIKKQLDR
Sequence of MAGI2_4, Q86UL8 (Q86UL8 772-865): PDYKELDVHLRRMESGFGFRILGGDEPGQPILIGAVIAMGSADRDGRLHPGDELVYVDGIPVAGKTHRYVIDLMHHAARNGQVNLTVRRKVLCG
Sequence of FRMPD4, Q14CM0 (Q14CM0 67-160): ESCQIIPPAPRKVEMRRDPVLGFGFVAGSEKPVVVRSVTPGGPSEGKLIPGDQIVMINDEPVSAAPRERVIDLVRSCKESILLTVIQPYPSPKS
Sequence of GRIP2_4, Q9C0E4 (Q9C0E4 446-548): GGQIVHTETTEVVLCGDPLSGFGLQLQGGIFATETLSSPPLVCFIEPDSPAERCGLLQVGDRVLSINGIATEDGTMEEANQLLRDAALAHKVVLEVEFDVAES
Sequence of PDZRN4_1, Q6ZMN7 (Q6ZMN7 213-318): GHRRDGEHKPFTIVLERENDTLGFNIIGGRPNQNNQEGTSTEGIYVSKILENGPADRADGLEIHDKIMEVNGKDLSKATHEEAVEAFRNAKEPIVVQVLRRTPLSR
Sequence of CASK, O14936 (O14936 487-570): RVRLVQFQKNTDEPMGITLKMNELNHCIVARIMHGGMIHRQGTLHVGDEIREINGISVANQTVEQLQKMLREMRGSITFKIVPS
Sequence of HTRA2, O43464 (O43464 355-458): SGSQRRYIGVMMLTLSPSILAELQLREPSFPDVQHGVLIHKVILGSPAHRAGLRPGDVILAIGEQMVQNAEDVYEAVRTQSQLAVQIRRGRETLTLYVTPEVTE
Sequence of GRIP2_5, Q9C0E4 (Q9C0E4 544-642): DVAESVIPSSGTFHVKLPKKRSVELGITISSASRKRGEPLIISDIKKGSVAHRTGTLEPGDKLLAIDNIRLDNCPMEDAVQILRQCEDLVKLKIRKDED
Sequence of MAGI2_2, Q86UL8 (Q86UL8 410-522): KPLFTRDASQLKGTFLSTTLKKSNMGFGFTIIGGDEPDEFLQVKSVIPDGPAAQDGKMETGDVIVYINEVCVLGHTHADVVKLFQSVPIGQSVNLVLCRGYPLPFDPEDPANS

Row | Binder | pKd (GRID2IP_1, A4D2P6) | pKd (GRIP2_5, Q9C0E4) | pKd (SYNJ2BP, P57105) | pKd (SNX27, Q96L92) | pKd (GRIP1_2, Q9Y3R0) | pKd (SCRIB_2, Q14160) | pKd (GRIP1_5, Q9Y3R0) | pKd (CASK, O14936) | pKd (GRIP2_7, Q9C0E4) | pKd (APBA1_1, Q02410) | pKd (TJP2_1, Q9UDY2) | pKd (TJP3_3, O95049) | pKd (APBA2_1, Q99767) | pKd (GRIP2_6, Q9C0E4) | pKd (MAGI2_4, Q86UL8) | pKd (GRIP2_4, Q9C0E4) | pKd (MAGI2_2, Q86UL8) | pKd (LAP2, Q96RT1) | pKd (FRMPD4, Q14CM0) | pKd (PDZRN4_1, Q6ZMN7) | other results
1 | LVEEEEPMNL [HDAC7, Q8WUI4] | below the threshold | below the threshold | below the threshold | below the threshold | below the threshold | below the threshold | below the threshold | below the threshold | below the threshold | below the threshold | below the threshold | below the threshold | below the threshold | below the threshold | below the threshold | below the threshold | below the threshold | below the threshold | 3.86 | below the threshold | pKd (HTRA2, O43464): below the threshold; pKd (DLG5_1, Q8TDM6): below the threshold; pKd (Inadl_2, Q8NI35): below the threshold; pKd (SCRIB_1, Q14160): below the threshold; pKd (MPP7, Q5T2T1): below the threshold; pKd (GRIP1_7, Q9Y3R0): below the threshold; pKd (GRIP1_3, Q9Y3R0): below the threshold; pKd (GORASP2, Q9H8Y8): below the threshold
2 | TKDKVQETQI [LRRC4, Q9HBW1] | below the threshold | below the threshold | 4.75 | 5.5 | below the threshold | 4.41 | below the threshold | below the threshold | below the threshold | below the threshold | below the threshold | below the threshold | below the threshold | below the threshold | 3.72 | below the threshold | 4.25 | 3.54 | 3.57 | 4.6 | pKd (HTRA2, O43464): below the threshold; pKd (DLG5_1, Q8TDM6): below the threshold; pKd (Inadl_2, Q8NI35): below the threshold; pKd (SCRIB_1, Q14160): 5.19; pKd (MPP7, Q5T2T1): below the threshold; pKd (GRIP1_7, Q9Y3R0): below the threshold; pKd (GRIP1_3, Q9Y3R0): below the threshold; pKd (GORASP2, Q9H8Y8): 3.57
3 | ADEMICITTL [CACNA1D, Q01668] | below the threshold | below the threshold | 4.24 | 5.51 | below the threshold | 3.88 | below the threshold | below the threshold | 3.62 | below the threshold | below the threshold | below the threshold | below the threshold | below the threshold | below the threshold | below the threshold | below the threshold | 3.66 | 3.97 | 3.72 | pKd (HTRA2, O43464): 3.83; pKd (DLG5_1, Q8TDM6): below the threshold; pKd (Inadl_2, Q8NI35): below the threshold; pKd (SCRIB_1, Q14160): 4.89; pKd (MPP7, Q5T2T1): below the threshold; pKd (GRIP1_7, Q9Y3R0): below the threshold; pKd (GRIP1_3, Q9Y3R0): below the threshold; pKd (GORASP2, Q9H8Y8): 4.05
4 | MLPANYVEAI [NEB, P20929] | below the threshold | below the threshold | below the threshold | below the threshold | below the threshold | below the threshold | below the threshold | below the threshold | below the threshold | below the threshold | below the threshold | below the threshold | below the threshold | below the threshold | below the threshold | below the threshold | below the threshold | below the threshold | below the threshold | below the threshold | pKd (HTRA2, O43464): below the threshold; pKd (DLG5_1, Q8TDM6): below the threshold; pKd (Inadl_2, Q8NI35): below the threshold; pKd (SCRIB_1, Q14160): below the threshold; pKd (MPP7, Q5T2T1): below the threshold; pKd (GRIP1_7, Q9Y3R0): below the threshold; pKd (GRIP1_3, Q9Y3R0): below the threshold; pKd (GORASP2, Q9H8Y8): 4.31
